Molecular target: T1, DPP-IV as immobilized on the CM5 surface plasmon resonance sensor (Biacore) (human, UniProt P27487 31-766)
T1 construct: Same recombinant sDPP-IV polypeptide as m1; Amine-coupled, about 10 000 RU; in one flow cell cross-linked with carbodiimide/N-hydroxysuccinimide; also called sDPP-IV
Experiment: SPR (Biacore), DPP-IV immobilized on CM5 sensor
Experimental: The organic adlayer on this sensor type consists of carboxymethylated dextran (MW≈100 kDA). […] The surfaces of two flow cells were modified with protein. […] Hepes buffer (0.01 M Hepes, pH 7.4, 0.15 M NaCl, 3 mM EDTA, 0.005% polysorbate 20 (v/v)) was used as the running buffer. […] The final inhibitor solution contained less than 0.1% DMSO. Binding experiments were carried out by contacting the immobilized protein surfaces with inhibitor solutions of varying concentrations at a flow rate of 10 μl/min or 30 μl/min. After each contact with inhibitor, the protein surfaces were regenerated by extensively washing with running buffer.

T1 sequence (P27487 31-766 limits assumed): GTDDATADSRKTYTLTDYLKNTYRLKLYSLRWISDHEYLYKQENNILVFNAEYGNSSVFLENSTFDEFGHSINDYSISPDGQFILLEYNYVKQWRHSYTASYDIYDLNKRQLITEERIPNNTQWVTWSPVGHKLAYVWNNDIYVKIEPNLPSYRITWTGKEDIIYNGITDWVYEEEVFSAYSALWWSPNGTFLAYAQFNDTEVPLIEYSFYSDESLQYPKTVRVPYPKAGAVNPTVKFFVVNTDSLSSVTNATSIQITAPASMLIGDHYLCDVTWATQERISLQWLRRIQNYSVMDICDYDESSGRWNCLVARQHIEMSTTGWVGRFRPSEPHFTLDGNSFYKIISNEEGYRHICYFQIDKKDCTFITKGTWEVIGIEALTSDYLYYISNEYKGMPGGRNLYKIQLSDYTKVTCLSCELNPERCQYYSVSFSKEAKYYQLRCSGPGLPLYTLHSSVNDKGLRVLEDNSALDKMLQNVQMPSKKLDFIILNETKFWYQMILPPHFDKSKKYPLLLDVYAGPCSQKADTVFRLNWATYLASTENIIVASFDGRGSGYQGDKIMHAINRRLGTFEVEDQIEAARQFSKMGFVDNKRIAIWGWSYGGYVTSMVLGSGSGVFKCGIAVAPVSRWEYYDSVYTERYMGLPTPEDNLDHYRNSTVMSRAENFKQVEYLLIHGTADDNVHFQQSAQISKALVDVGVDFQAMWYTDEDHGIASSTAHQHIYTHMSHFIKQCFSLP

B1: adenosine deaminase (ADA; Sigma Type IV, from calf intestinal mucosa) (enzyme, bovine, UniProt P56658 2-357, looked up)
chain: AQTPAFNKPKVELHVHLDGAIKPETILYYGRKRGIALPADTPEELQNIIGMDKPLSLPEFLAKFDYYMPAIAGCREAVKRIAYEFVEMKAKDGVVYVEVRYSPHLLANSKVEPIPWNQAEGDLTPDEVVSLVNQGLQEGERDFGVKVRSILCCMRHQPSWSSEVVELCKKYREQTVVAIDLAGDETIEGSSLFPGHVKAYAEAVKSGVHRTVHAGEVGSANVVKEAVDTLKTERLGHGYHTLEDATLYNRLRQENMHFEVCPWSSYLTGAWKPDTEHPVVRFKNDQVNYSLNTDDPLIFKSTLDTDYQMTKNEMGFTEEEFKRLNINAAKSSFLPEDEKKELLDLLYKAYGMPSPA
notes: Bought protein purified from tissue; also called ADA from bovine
  Kd: 3.15 nM
  koff: 8.75e-05 s⁻¹
  kon: 29800 M⁻¹ s⁻¹
